Assay results published in article PMC8082267, “Inhibition of the PP2A activity by the histone chaperone ANP32B is long-range allosterically regulated by respiratory cytochrome c” (Redox Biology, 2021).

Key:
Settings in all cases: both partners purified
[1] = molecular target: T1, ANP32B construct lacking its Nuclear Localization Signal sequence (ANP32B_(1-231)) (human, UniProt Q92688-1 1-231); assay: ITC; low ionic strength: 400 μM reduced Cc injected into ANP32B construct in the cell (50 μM ANP32B_(1-251), 40 μM ANP32B_(1-231), 50 μM ANP32B_(1-161)), 10 mM sodium phosphate pH 7.4; models with one or two independent binding sites
T1 construct: lacks the 20-amino acid C-end stretch; source: E. coli BL21 (DE3) pLysS, purified (Ni-NTA, Superdex 200)

[2] = molecular target: T2, full-length ANP32B (ANP32B_(1-251)), recombinant (human, UniProt Q92688-1 1-251); assay: as above
T2 construct: cloned by PCR from cDNA (Geneservice, UK) into pET28a(+); source: E. coli BL21 (DE3) pLysS, purified (Ni-NTA, Superdex 200)

[3] = molecular target: T2, full-length ANP32B (ANP32B_(1-251)), …; assay: ITC; high ionic strength: reduced Cc injected into ANP32B_(1-251), 10 mM sodium phosphate pH 7.4 with 150 mM NaCl
[4] = molecular target: T3, full-length ANP32B (ANP32B1-251) (human, UniProt Q92688-1 1-251); assay: ITC; reduced Cc (400 uM stock) injected into ANP32B1-251 (50 uM) in the cell; 10 mM sodium phosphate pH 7.4 with 150 mM NaCl; single binding site
T3 construct: also called Acidic leucine-rich Nuclear Phosphoprotein 32 family member B; source: E. coli BL21 (DE3) pLysS, pET28a(+), purified (Ni-NTA, Superdex 200)
T3 sequence (Q92688 whole entry): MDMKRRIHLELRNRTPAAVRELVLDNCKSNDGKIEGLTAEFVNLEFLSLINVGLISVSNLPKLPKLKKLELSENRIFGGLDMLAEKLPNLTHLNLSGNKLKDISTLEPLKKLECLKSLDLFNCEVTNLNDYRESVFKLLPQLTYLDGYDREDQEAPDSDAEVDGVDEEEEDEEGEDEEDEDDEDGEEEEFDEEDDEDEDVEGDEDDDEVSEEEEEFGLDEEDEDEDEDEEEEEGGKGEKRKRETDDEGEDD

T1 sequence (Q92688 1-231): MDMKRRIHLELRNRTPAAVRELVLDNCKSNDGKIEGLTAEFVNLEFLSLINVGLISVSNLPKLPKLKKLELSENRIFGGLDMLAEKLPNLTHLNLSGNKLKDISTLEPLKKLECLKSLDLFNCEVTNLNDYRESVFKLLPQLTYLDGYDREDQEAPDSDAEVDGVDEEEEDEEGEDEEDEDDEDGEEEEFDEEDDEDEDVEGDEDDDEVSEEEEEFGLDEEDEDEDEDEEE
T2 sequence (Q92688 whole entry): as the sequence (Q92688 whole entry) above

B1: recombinant respiratory cytochrome c (natural protein)
chain: not shown
modifications: heme group (hemeprotein), reduced with sodium ascorbate; 15N-labelled in the HSQC titrations
notes: cytochrome c, human; also called Cc; the hemeprotein
Kd [1]: 8 µM | dH [1]: -3.6 kcal/mol | stoichiometry N [1]: 1.09 | dH, higher-affinity site (two independent sites) [2]: -10.7 kcal/mol | dH, lower-affinity site (two independent sites) [2]: 29.5 kcal/mol | stoichiometry N [3]: 1

B2: cytochrome c (natural protein)
chain: not shown
modifications: heme group; kept in the reduced redox state; 15N-labelled in the NMR titrations
notes: cytochrome c, human (the anti-human Cc serum was raised against this recombinant Cc); NMR assignment BMRB 5406 and structure PDB 1J3S are used for it; also called Cc; respiratory cytochrome c; source: E. coli BL21 (DE3), pBTR1 vector also encoding yeast heme lyase, purified (carboxymethyl cellulose ion exchange)
Kd [4]: 9.1 µM | stoichiometry N [4]: 1.2
